{
  "source": "patent US20050003397A1",
  "binders": {"B1": {"name": "Peptide A (synthetic peptide of SEQ ID NO 1) (peptide)", "peptide": "PRRIKPRKIMLQ"}},
  "molecular_target": "BAT monoclonal antibody",
  "experiment": "competition phage ELISA; BAT (6 µg/ml) pre-incubated with increasing synthetic Peptide A, binding to immobilized Peptide A phage read",
  "data": [
    {"binder": "B1", "values": [
      {"measurement": "IC50", "value": 660, "unit": "nM"}
    ]}
  ]
}
